According to patent US20100229252, “MEGANUCLEASE VARIANTS CLEAVING A DNA TARGET SEQUENCE FROM THE HUMAN HEMOGLOBIN BETA GENE AND USES THEREOF” (CELLECTIS, published 2010):
Where a chain is given by its changes, count along the chain named.

T1: I-CreI heterodimer HBB8.3_I3 / HBB8.4_D4 (Chlamydomonas reinhardtii, UniProt P05725;P05725 SEQ:1-167,SEQ:1-167)
T1 chain 1: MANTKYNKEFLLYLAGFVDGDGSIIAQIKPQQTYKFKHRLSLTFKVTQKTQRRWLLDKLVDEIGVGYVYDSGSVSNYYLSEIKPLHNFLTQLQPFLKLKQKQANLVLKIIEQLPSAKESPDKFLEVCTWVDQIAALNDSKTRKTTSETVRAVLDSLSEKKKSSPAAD
T1 chain 2: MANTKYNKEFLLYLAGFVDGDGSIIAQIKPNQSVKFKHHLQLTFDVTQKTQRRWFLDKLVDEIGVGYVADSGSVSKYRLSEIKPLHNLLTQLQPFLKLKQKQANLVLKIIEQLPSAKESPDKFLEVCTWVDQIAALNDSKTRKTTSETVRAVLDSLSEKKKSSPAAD

T2: I-CreI heterodimer HBB8.3_J3 / HBB8.4_B4 (Chlamydomonas reinhardtii, UniProt P05725;P05725 SEQ:1-167,SEQ:1-167)
T2 chain 1: T1 chain 1 with K45Q, L55F, Y69A, Y78R, F88L
T2 chain 2: T1 chain 2 with G20S, V34T, H39R, L88F

T3: I-CreI heterodimer HBB8.3_H3 / HBB8.4_D4 (Chlamydomonas reinhardtii, UniProt P05725;P05725 SEQ:1-167,SEQ:1-167)
T3 chain 1: T1 chain 1 with G20S, Q31N, T33S, Y34G, R39K, L55F, I133V
T3 chain 2: T1 chain 2

T4: I-CreI heterodimer HBB8.3_I3 / HBB8.4_A4 (Chlamydomonas reinhardtii, UniProt P05725;P05725 SEQ:1-167,SEQ:1-167)
T4 chain 1: T1 chain 1
T4 chain 2: T1 chain 2 with Q132R

T5: I-CreI heterodimer HBB8.3_K3 / HBB8.4_B4 (Chlamydomonas reinhardtii, UniProt P05725;P05725 SEQ:1-167,SEQ:1-167)
T5 chain 1: T1 chain 1 with G20S, L55F, Y78I
T5 chain 2: T1 chain 2 with G20S, V34T, H39R, L88F

T6: I-CreI heterodimer HBB8.3_K3 / HBB8.4_D4 (Chlamydomonas reinhardtii, UniProt P05725;P05725 SEQ:1-167,SEQ:1-167)
T6 chain 1: T1 chain 1 with G20S, L55F, Y78I
T6 chain 2: T1 chain 2

T7: I-CreI heterodimer HBB8.3_C3 / HBB8.4_C4 (Chlamydomonas reinhardtii, UniProt P05725;P05725 SEQ:1-167,SEQ:1-167)
T7 chain 1: T1 chain 1 with Q31N, T33S, Y34G, R39K, L55F, I133V
T7 chain 2: T1 chain 2 with G20S, H39R, L88F

T8: I-CreI heterodimer HBB8.3_B3 / HBB8.4_C4 (Chlamydomonas reinhardtii, UniProt P05725;P05725 SEQ:1-167,SEQ:1-167)
T8 chain 1: T1 chain 1 with L55F, V106A, L153Q
T8 chain 2: T1 chain 2 with G20S, H39R, L88F

T9: I-CreI heterodimer HBB8.3_J3 / HBB8.4_C4 (Chlamydomonas reinhardtii, UniProt P05725;P05725 SEQ:1-167,SEQ:1-167)
T9 chain 1: T1 chain 1 with K45Q, L55F, Y69A, Y78R, F88L
T9 chain 2: T1 chain 2 with G20S, H39R, L88F

T10: I-CreI heterodimer HBB8.3_D3 / HBB8.4_A4 (Chlamydomonas reinhardtii, UniProt P05725;P05725 SEQ:1-167,SEQ:1-167)
T10 chain 1: T1 chain 1 with G20S, Q31N, T33S, Y34G, R39K, L55F, E118G
T10 chain 2: T1 chain 2 with Q132R

T11: I-CreI heterodimer HBB8.3_I3 / HBB8.4_C4 (Chlamydomonas reinhardtii, UniProt P05725;P05725 SEQ:1-167,SEQ:1-167)
T11 chain 1: T1 chain 1
T11 chain 2: T1 chain 2 with G20S, H39R, L88F

B1: HBB6 (dsDNA)
DNA 1: CTGACTCCTGAGGAGAAGTCTG
DNA 2: CAGACTTCTCCTCAGGAGTCAG
B2: HBB8 (dsDNA)
DNA 1: CTGACTCCTGTGGAGAAGTCTG
DNA 2: CAGACTTCTCCACAGGAGTCAG

Assays:
Test in all cases: cell_activity; CHO extrachromosomal LacZ assay
[1] = target: T1, I-CreI heterodimer HBB8.3_I3 / HBB8.4_D4
[2] = target: T2, I-CreI heterodimer HBB8.3_J3 / HBB8.4_B4
[3] = target: T3, I-CreI heterodimer HBB8.3_H3 / HBB8.4_D4
[4] = target: T4, I-CreI heterodimer HBB8.3_I3 / HBB8.4_A4
[5] = target: T5, I-CreI heterodimer HBB8.3_K3 / HBB8.4_B4
[6] = target: T6, I-CreI heterodimer HBB8.3_K3 / HBB8.4_D4
[7] = target: T7, I-CreI heterodimer HBB8.3_C3 / HBB8.4_C4
[8] = target: T8, I-CreI heterodimer HBB8.3_B3 / HBB8.4_C4
[9] = target: T9, I-CreI heterodimer HBB8.3_J3 / HBB8.4_C4
[10] = target: T10, I-CreI heterodimer HBB8.3_D3 / HBB8.4_A4
[11] = target: T11, I-CreI heterodimer HBB8.3_I3 / HBB8.4_C4

Binder	activity [1]	activity [2]	activity [3]	activity [4]	activity [5]	activity [6]	activity [7]	activity [8]	activity [9]	activity [10]	activity [11]
B1	0.12 absorbance units	1.75 absorbance units	1.84 absorbance units	0.45 absorbance units	1.57 absorbance units	1.63 absorbance units	1.87 absorbance units	1.86 absorbance units	1.88 absorbance units	1.23 absorbance units	2.36 absorbance units
B2	1.57 absorbance units	2.47 absorbance units	2.1 absorbance units	1.15 absorbance units	2.06 absorbance units	1.93 absorbance units	2.62 absorbance units	2.32 absorbance units	2.21 absorbance units	1.53 absorbance units	2.42 absorbance units
